Experimental data as given in article PMC6707248, “hCINAP regulates the DNA-damage response and mediates the resistance of acute myelocytic leukemia cells to therapy” (Nature Communications, 2019).

Target: T1, GST-NPM1 (unSUMOylated) (UniProt P06748 1-294)
T1 construct: Nucleophosmin (NPM1); also called GST-tagged NPM1; unSUMOylated GST-NPM1; source: E. coli, purified
Experiment: pull-down; in vitro GST pull-down; His-hCINAP and GST-NPM1 purified from E. coli; GST protein as negative control
Settings: both partners purified

T1 sequence (P06748 whole entry): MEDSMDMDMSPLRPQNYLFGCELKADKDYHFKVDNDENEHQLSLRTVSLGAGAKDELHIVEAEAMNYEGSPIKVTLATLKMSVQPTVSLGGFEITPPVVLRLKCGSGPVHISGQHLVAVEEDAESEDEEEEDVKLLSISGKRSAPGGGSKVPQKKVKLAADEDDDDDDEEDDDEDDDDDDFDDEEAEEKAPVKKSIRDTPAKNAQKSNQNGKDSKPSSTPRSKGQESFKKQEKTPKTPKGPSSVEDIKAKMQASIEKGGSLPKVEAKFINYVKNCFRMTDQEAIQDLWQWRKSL

B1: His-hCINAP (natural protein, human, UniProt Q9Y3D8 1-172, looked up)
chain: MLLPNILLTGTPGVGKTTLGKELASKSGLKYINVGDLAREEQLYDGYDEEYDCPILDEDRVVDELDNQMREGGVIVDYHGCDFFPERWFHIVFVLRTDTNVLYERLETRGYNEKKLTDNIQCEIFQVLYEEATASYKEEIVHQLPSNKPEELENNVDQILKWIEQWIKDHNS
notes: source: E. coli, purified
Does B1 bind?
Result: binds
